Laboratory results reported in patent US20200277373A1 (DENALI THERAPEUTICS, published 2020).
Changes are numbered by the printed parent chain.

B1: RS9.F6 (antibody, V domains shown)
VH: QVQLQQPGAELVKPGASVKLSCKASGYTFTSYWMHWVKQSPGRGLEWIGRSDPTTGGTNYNEKFKTKATLTVDKPSSTAYMQLSSLTSDDSAVYYCVRTSGTGDYWGQGTSLTVSS
VL: DVVMTQTPLSLPVSLGDQASISCRSSQSLVHNNGNTFLHWYLQKPGQSPKLLIYKVSNRFSGVPDRFSGSGSGTDFTLKISRVEAEDLGVYFCSQTTHVPPTFGGGTKLEIK
B2: RS9.F6/3C.35.21.17 (bispecific antibody, human IgG1, L234A L235A)
heavy 1: QVQLQQPGAELVKPGASVKLSCKASGYTFTSYWMHWVKQSPGRGLEWIGRSDPTTGGTNYNEKFKTKATLTVDKPSSTAYMQLSSLTSDDSAVYYCVRTSGTGDYWGQGTSLTVSSASTKGPSVFPLAPSSKSTSGGTAALGCLVKDYFPEPVTVSWNSGALTSGVHTFPAVLQSSGLYSLSSVVTVPSSSLGTQTYICNVNHKPSNTKVDKKVEPKSCDKTHTCPPCPAPEAAGGPSVFLFPPKPKDTLMISRTPEVTCVVVDVSHEDPEVKFNWYVDGVEVHNAKTKPREEQYNSTYRVVSVLTVLHQDWLNGKEYKCKVSNKALGAPIEKTISKAKGQPREPQVYTLPPSRDELTKNQVSLWCLVKGFYPSDIAVLWESYGTEWASYKTTPPVLDSDGSFFLYSKLTVTKEEWQQGFVFSCSVMHEALHNHYTQKSLSLSPGK
heavy 2: QVQLQQPGAELVKPGASVKLSCKASGYTFTSYWMHWVKQSPGRGLEWIGRSDPTTGGTNYNEKFKTKATLTVDKPSSTAYMQLSSLTSDDSAVYYCVRTSGTGDYWGQGTSLTVSSASTKGPSVFPLAPSSKSTSGGTAALGCLVKDYFPEPVTVSWNSGALTSGVHTFPAVLQSSGLYSLSSVVTVPSSSLGTQTYICNVNHKPSNTKVDKKVEPKSCDKTHTCPPCPAPEAAGGPSVFLFPPKPKDTLMISRTPEVTCVVVDVSHEDPEVKFNWYVDGVEVHNAKTKPREEQYNSTYRVVSVLTVLHQDWLNGKEYKCKVSNKALGAPIEKTISKAKGQPREPQVYTLPPSRDELTKNQVSLSCAVKGFYPSDIAVEWESNGQPENNYKTTPPVLDSDGSFFLVSKLTVDKSRWQQGNVFSCSVMHEALHNHYTQKSLSLSPGK
light: B1 VL
notes: second: RS9.F6 Fd on Fc with LALAPG and hole mutations; Vectors co-transfected 1:1:2; also called RS9.F6/3C35.21.17_LALAPG; ATV-Anti-TREM2
B3: RS9.F10 (antibody, V domains shown)
VH: B1 VH
VL: B1 VL
notes: same entries as RS9.F6; also called RS.F10
B4: 24B4.A1 (antibody, V domains shown)
VH: QVHLQQSGSELRSPGSSVKLSCKDFDSEVFPISYMSWIRQKPGHGFEWIGDILPSIGGRIYGVKFEDRATLDADTVSNTAYLELNSLTSEDSAIYYCARKDYGSLAYWGQGTLVTVSA
VL: B1 VL with N32I, F37Y, H39Q, Y41F, D75A, T96S, P101Y
notes: Mouse hybridoma antibody, Ig2a, k; same entries as 26E2.A3; also called RS8.24B4.A1
B5: F6 Fab (Fab fragment of anti-TREM2 antibody RS9.F6) (Fab, V domains shown)
VH: B1 VH
VL: B1 VL
notes: Fab expressed in Expi-293 cells; also called TREM2 Fab
B6: 54C2.A1 (antibody, V domains shown)
VH: B4 VH with S33A, I38V, G58R, R68K, A98T
VL: B1 VL with N32I, F37Y, H39Q, K79R, T96S, V99L, P101Y
notes: Mouse hybridoma antibody, Ig2b, k; also called RS8.54C2.A1

Legend:
[1] = molecular target: T1, His-tagged TREM2 ECD (ecto domain residues 19-172 of human TREM2, C-terminal 6X-His tag) (human, UniProt Q9NZC2 19-172); assay: Biacore T200, antibody captured, antigen injected, 1:1 model
T1 construct: Made in Expi293F cells; the mouse Ig kappa secretion signal is not part of the mature protein; Biotinylated for the Octet binning; also called TREM2-His; TREM2-His protein
T1 sequence: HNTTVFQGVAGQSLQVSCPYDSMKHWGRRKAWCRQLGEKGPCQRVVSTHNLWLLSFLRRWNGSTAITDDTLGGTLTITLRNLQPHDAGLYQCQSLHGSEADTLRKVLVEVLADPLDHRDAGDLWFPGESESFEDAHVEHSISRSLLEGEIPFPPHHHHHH
Method: (§1) To measure TfR binding, anti-human-Fab was immobilized on a CM5 chip, and the TREM2/TfR-binding protein was captured. Full-length human TfR or human TfR apical domain at serial dilution (e.g., concentrations of 1-1000 nM) was flowed over the chip (180 second association time) and then allowed to dissociate. Fitting was performed using a 1:1 binding model. To measure TREM2 binding, anti-human-Fc antibody was immobilized on a CM5 chip, and the TREM2/TfR-binding protein was captured. A range of concentrations of recombinant TREM2-His protein were flowed over the chip, and allowed to associate and dissociate. The resulting sensograms were fitted using a 1:1 Langmuir model to estimate kₒₙ and koff (FIG. 10).
(§2) Biacore Series S CM5 sensor chips were immobilized with a mixture of two monoclonal mouse anti-Fab antibodies (Human Fab capture kit from GE Healthcare). Serial 3-fold dilutions of each antigen were injected at a flow rate of 30 μL/min. The binding of the antigens to captured antibody was monitored for 30 to 180 seconds and then their dissociation was monitored for 30-300 seconds in HBS-EP+running buffer (GE, # BR100669). Binding response was corrected by subtracting the RU from a blank flow cell. A 1:1 Languir model of simultaneous fitting of kₒₙ and koff was used for kinetics analysis.

[2] = molecular target: T2, Human TREM2 protein, on cells (human, UniProt Q9NZC2 19-230); assay: cell-based or functional assay
T2 sequence: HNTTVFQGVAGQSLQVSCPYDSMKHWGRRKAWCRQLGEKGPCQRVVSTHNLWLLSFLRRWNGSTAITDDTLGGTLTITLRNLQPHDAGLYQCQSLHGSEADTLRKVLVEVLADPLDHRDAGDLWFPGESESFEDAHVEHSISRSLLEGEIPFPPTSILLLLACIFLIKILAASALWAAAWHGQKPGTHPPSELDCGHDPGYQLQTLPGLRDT

[3] = molecular target: T3, Mouse TREM2, on cells (mouse, UniProt Q99NH8 19-227); assay: flow cytometry, 293F cells overexpressing mouse TREM2
T3 construct: whole, on cells; also called mouse TREM2 HEK
T3 sequence (looked up): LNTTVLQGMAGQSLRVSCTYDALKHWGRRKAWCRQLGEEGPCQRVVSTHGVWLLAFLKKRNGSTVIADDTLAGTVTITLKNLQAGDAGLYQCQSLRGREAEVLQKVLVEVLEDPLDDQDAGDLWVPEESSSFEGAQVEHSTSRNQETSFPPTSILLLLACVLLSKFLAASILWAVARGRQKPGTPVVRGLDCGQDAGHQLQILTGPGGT
Method: (§3) After labeling, cells were washed twice with 1×PBS. […] Mixed cell lines were seeded at 300,000 cells per well in a 96-well round-bottom and incubated 20 minutes at room temperature. After incubation, cells were centrifuged and test anti-TREM2 antibodies were added, then incubated for 45 minutes on ice. After incubation, cells were centrifuged and washed with FACS buffer three times.
(§4) The data in Table 2 is presented as fold over binding (FOB).

[4] = molecular target: T2, Human TREM2 protein, on cells; assay: flow cytometry, HEK293 cells overexpressing human TREM2
Method: as §3, §4

[5] = molecular target: T2, Human TREM2 protein, on cells; assay: cell-based or functional assay; remark: listed apart in the source
[6] = molecular target: T3, Mouse TREM2, on cells; assay: flow cytometry titration on mTREM2-293F cells
Text: (§5) FIGS. 1A-1D. […] (A) Anti-TREM2 antibodies were screened for binding to HEK cells expressing human TREM2 (unlabeled) and mouse TREM2 HEK expressing cells (labeled with NucBlue). Antibody binding was detected with a secondary anti-mouse multiple adsorption antibody conjugated to APC. […] (B) Parental HEK-GFP cells were used as a negative control to rule out non-specific binding. (C) Anti-TREM2 antibody surface binding dose response in hTREM2-HEK cells. Anti-TREM2 antibodies were titrated for binding to HEK cells expressing human TREM2. Antibody binding was detected with a secondary anti-mouse multiple adsorption antibody conjugated to APC. […] Mouse TREM2 HEK cells were titrated for binding as in (C).
as §3

[7] = molecular target: T2, Human TREM2 protein, on cells; assay: flow cytometry titration on hTREM2-HEK cells
Text: as §5, §3

[8] = molecular target: T1, His-tagged TREM2 ECD (ecto domain …); assay: Table 1 Kd; Biacore, TREM2-His analyte (presumed)
Method: Anti-murine Fc antibody (obtained from GE Healthcare) was immobilized on the surface of a CM5 chip (obtained from GE Healthcare) through amine-coupling to reach about 6,000 to 8,000 response units (RU). The surface was activated by injection of a mixture of 1-ethyl-3-(3-dimethylaminopropyl)-carbodiimide (EDC) and N-hydroxysuccinimide (NHS), both obtained from GE Healthcare, for 7 minutes. Anti-murine Fc antibody was diluted in sodium acetate (pH 5.0) at 25 μg/mL and injected for 10 minutes at a flow rate of 5 μL/minute, followed by injection of ethanolamine (obtained from GE Healthcare) for 7 minutes.
Purified anti-TREM2 hybridoma (20 μg/mL) was captured to reach 1000-1500 RU. A range of serially-diluted TREM2-His protein (e.g., 3.4 nM to 300 nM) was injected at a flow rate of 30 μL/minute, using either single-cycle kinetics methods. Sensorgrams were fitted using a 1:1 Langmuir model to estimate kₒₙ and koff.

[9] = molecular target: T2, Human TREM2 protein, on cells; assay: cell binding, human TREM2-expressing HEK cells, flow cytometry titration
[10] = molecular target: T4, Human transferrin receptor apical domain (human, UniProt P02786 198-378, limits assumed); assay: Biacore T200, antibody captured, antigen injected, 1:1 model
T4 construct: also called hTfR apical domain; TfR apical domain
Method: as §1, §2

[11] = molecular target: T3, Mouse TREM2, on cells; assay: Table 5, cell binding: Mouse TREM2 HEK
[12] = molecular target: T5, Human TREM2 synthetic 9-mer peptide DLWFPGESE (human); assay: X-ray co-crystal structure
T5 construct: also called TREM2 peptide; TREM2 9-mer peptide
T5 peptide: DLWFPGESE
Text: The synthetic 9-mer peptide […] (SEQ ID NO:335), corresponding to amino acid residues 140-148 of human TREM2 (according to UniProtKB entry TREM2_HUMAN) was used for co-crystallization.

T4 sequence (P02786 198-378 limits assumed): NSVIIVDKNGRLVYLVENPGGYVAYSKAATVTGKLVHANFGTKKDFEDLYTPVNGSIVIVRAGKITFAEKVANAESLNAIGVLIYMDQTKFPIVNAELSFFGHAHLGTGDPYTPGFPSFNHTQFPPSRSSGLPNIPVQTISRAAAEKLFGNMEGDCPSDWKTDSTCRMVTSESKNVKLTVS

Binder | Kd [1] [nM] | koff [1] [s⁻¹] | kon [1] [M⁻¹ s⁻¹] | STREM2 decrease (nM), EC50 [2] [nM] | pSyk (nM), EC50 [2] [nM] | FOB (fold over binding) [3] [fold] | FOB (fold over binding) [4] [fold] | pSyk FOB (30 nM Ab) [5] [fold over background] | EC50 [6] [nM] | EC50 [7] [nM] | Kd [8] [nM] | EC50 [9] [nM] | Kd [10] [nM] | koff [10] [s⁻¹] | kon [10] [M⁻¹ s⁻¹] | binding result [11] | binding result [12]
B1 | 2.3 | 0.00034 | 150000 | 0.3 | 15.9 | 73 | 13.2 | 8.49 | < 8 | < 2 | 0.733 | 1.62 | – | – | – | – | –
B2 | 2.6 | 0.00038 | 150000 | – | – | – | – | – | – | – | – | – | 110 | 0.19 | 1.7e+06 | – | –
B3 | – | – | – | – | 20.5 | 75.8 | 12.9 | 9.89 | < 8 | < 2 | 0.852 | 1.54 | – | – | – | – | –
B4 | – | – | – | – | 49.8 | 1.5 | 8.6 | 17.3 | – | – | 12.4 | 7.5 | – | – | – | no binding | –
B5 | – | – | – | – | – | – | – | – | – | – | – | – | – | – | – | – | binds
B6 | – | – | – | – | 456 | 1.7 | 12.8 | 6.56 | – | – | 2.19 | 4.09 | – | – | – | no binding | –
